Results on two substances are retold here after publication PMC8325310.

One assay concerns the target NT*-Bri2 BRICHOS (human). Description: SEC; IMAC-purified NT*-Bri2 BRICHOS concentrated to 3.4 mg/mL, Superdex 200 26/600, 20 mM NaPi pH 8.0 with 0.2 mM EDTA; four peaks resolved (monomer, dimer, tetramer, higher oligomers).
The target in assay [1] is recombinant human (rh) Bri2 BRICHOS (human). The experiment in a line: SDS-PAGE under reducing and non-reducing conditions; SEC-isolated rh Bri2 BRICHOS species analysed by SDS-PAGE, reducing and non-reducing.
The target is the same in assay [2]. Description: SEC; Bri2 BRICHOS species after thrombin cleavage and reverse IMAC, Superdex 200 26/600 (oligomer, tetramer, dimer) or Superdex 75 26/600 (monomer), 20 mM NaPi pH 8.0 with 0.2 mM EDTA.

Several values for one entry are separate records, joined by “and”; a condition that tells them apart may be missing. Identical values can stand only once.

Chain of NT*-Bri2 BRICHOS (Q9Y287 132-236): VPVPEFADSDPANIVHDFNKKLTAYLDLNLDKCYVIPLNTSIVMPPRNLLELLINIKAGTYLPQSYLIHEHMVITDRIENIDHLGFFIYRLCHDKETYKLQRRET

For NT*-Bri2 BRICHOS (domain or fragment), the stoichiometry N with NT*-Bri2 BRICHOS (human) is 2 and 4.
With “recombinant human (rh) Bri2 BRICHOS (domain or fragment)”, the stoichiometry N in assay [1] was 6; in assay [2] it was 2 and 4.
